Drawing on US20190153113A1, “CD39 VASCULAR ISOFORM TARGETING AGENTS” (INNATE PHARMA, priority 2015, published 2019), this text covers EC50 for one molecule.

In this test the target is T1, Human CD39 (vascular CD39, NTPDase1, ENTPD1) expressed at the cell surface (human, UniProt P49961 1-510).
T1 construct: also called huCD39; HEK-huCD39
T1 sequence: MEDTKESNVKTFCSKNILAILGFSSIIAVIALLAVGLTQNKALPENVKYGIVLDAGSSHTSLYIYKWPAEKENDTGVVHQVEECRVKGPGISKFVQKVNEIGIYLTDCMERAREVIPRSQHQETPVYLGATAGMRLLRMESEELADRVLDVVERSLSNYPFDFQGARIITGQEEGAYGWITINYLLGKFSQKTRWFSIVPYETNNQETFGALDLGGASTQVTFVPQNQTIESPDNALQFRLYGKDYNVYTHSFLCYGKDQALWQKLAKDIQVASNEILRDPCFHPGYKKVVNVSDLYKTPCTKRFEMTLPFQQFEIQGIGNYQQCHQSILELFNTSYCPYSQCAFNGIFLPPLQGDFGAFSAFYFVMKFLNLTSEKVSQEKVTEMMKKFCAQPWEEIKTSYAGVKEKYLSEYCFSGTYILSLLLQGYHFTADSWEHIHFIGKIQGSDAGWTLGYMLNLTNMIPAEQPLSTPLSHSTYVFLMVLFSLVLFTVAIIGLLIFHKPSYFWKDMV
The experiment in a line: flow cytometry on HEK cells expressing human CD39, antibody 99 nM to 0.045 nM (FIG. 1 legend says ELISA). Here is the method: Briefly, 1×10⁵ HEK-huCD39or cynoCD39 cells were incubated with various concentration of unlabeled anti-CD39 antibody or isotype control (IC) from 99 nM to 0.045 nM, for 30 minutes at 4° C. After washes, cells were incubated with Goat anti-mouse H+L labeled secondary antibody for 30 min at 4° C.
For orientation: Flow cytometry measures light scatter and fluorescence of single cells or particles in a stream.

By EC50 is commonly meant the concentration at which the effect is half-maximal. A low value points to greater potency.

B1: Antibody I-391, Fc silent recombinant chimeric human IgG1 with heavy chain N297Q mutation (antibody, V domains shown)
VH: QIQLVQSGPELKKPGETVKISCKASGYTFRNYGMNWVKQAPGKGLKWMGWINTYTGEPTYADDFKGRFAFSLATSASTAYLQISNLKNEDTATYFCARKAYYGSNYYFDYWGQGTTLTVSS
VL: DIVMTQSHKFMSTSVGDRVSITCKASQDVSTAVAWYQQKPGQSPKLLIYSASYRYTGVPDRFTGSGSGTDFTFTISTVQAEDLAVYYCQQHYTTPPYTFGGGTKLEIKR
B1 displayed a concentration for a half-maximal effect (EC50) of 14.9 nM.
